Key:
cynomolgus monkey GPRC5D [1] = biological target: T1, cynomolgus monkey GPRC5D (cynomolgus monkey); assay: FACS, HEK293T-cynoGPRC5D cells
T1 construct: whole, on cells; HEK293T-cynoGPRC5D cells; also called cynoGPRC5D
Source text: (§1) The subcloning plates were screened by Mirrorball assay and the subclones with good binding ability were expanded to 24-wells for confirmation tests. The specificity and cross-reactivity of these subclones were confirmed with FACS analysis. Briefly, parental HEK293T, HEK293T cells stably over-expressing human GPRC5D protein (i.e., HEK293T-hGPRC5D), HEK293T cells stably over-expressing cynomolgus monkey GPRC5D protein (i.e., HEK293T-cynoGPRC5D), HEK293T cells stably over-expressing mouse GPRC5D protein (i.e., HEK293T-mGPRC5D), and OPM2 cells were incubated with antibodies produced by each subclone, respectively. Fluorescent dye-conjugated secondary antibody was used to detect the binding of the primary antibody with the cells. Median fluorescence intensity (MFI) was measured by FACS analysis,
(§2) As a result, 21 antibodies were discovered with unique sequences showing positive binding with HEK293T-hGPRC5D and OPM2 cells. Among which, some clones could also bind with HEK293T-cynoGPRC5D and/or HEK293T-mGPRC5D. […] ATG596 was a positive human IgG1 control antibody which comprises a VH region having an amino acid sequence as set forth in SEQ ID NO: 199, and a VL region having an amino acid sequence as set forth in SEQ ID NO: 200.

human GPRC5D [2] = biological target: T2, human GPRC5D (human, UniProt Q9NZD1 1-345); assay: FACS, HEK293T-hGPRC5D cells
T2 construct: whole, on cells; also called hGPRC5D; G-protein coupled receptor family C group 5 member D
Source text: as §1, §2

human GPRC5D [3] = biological target: T2, human GPRC5D; assay: FACS, OPM-2 cells
Source text: as §1, §2

human GPRC5D [4] = biological target: T2, human GPRC5D; assay: FACS, CHOS-hGPRC5D cells
mouse GPRC5D = biological target: T3, mouse GPRC5D (mouse, UniProt Q9JIL6 1-344); assay: FACS, HEK293T-mGPRC5D cells
T3 construct: whole, on cells; HEK293T-mGPRC5D cells; also called mGPRC5D; murine GPRC5D
T3 sequence (looked up): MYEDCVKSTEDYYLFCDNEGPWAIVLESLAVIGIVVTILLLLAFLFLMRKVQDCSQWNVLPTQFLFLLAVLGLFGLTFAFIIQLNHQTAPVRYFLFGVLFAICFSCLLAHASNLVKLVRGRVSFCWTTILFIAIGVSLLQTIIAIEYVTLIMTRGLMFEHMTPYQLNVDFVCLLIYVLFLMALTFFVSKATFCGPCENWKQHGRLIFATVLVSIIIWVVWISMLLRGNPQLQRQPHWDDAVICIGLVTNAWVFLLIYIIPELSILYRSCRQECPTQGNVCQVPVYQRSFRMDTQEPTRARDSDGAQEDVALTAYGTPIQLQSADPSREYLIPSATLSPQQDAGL

cynomolgus monkey GPRC5D [5] = biological target: T1, cynomolgus monkey GPRC5D; assay: FACS, HEK293T-cynoGPRC5D cells; remark: listed apart in the source

T2 sequence (Q9NZD1 whole entry): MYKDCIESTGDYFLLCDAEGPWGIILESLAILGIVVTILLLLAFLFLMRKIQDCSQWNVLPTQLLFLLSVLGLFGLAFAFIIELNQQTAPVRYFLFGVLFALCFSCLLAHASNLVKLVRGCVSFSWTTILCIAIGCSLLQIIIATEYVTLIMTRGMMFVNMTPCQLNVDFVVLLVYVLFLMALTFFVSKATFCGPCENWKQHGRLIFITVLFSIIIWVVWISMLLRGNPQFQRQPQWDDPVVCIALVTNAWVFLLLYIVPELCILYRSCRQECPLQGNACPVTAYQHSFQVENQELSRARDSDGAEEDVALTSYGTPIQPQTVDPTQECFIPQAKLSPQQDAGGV

B1: 83A9B8 (antibody, V domains shown)
VH: EVQLQQSGPELVKPGASVKMSCKASGYTFSNYVIHWVKQKPGQGLEWIGYFNPYNDGSKYNEKFKGKATLTSDKSSSTAYMELSSLTSEDSAVYYCARGGVRRYFDVWGAGTTVTVSS
VL: DIQMTQSPSSLSASLGERVSLTCRASQDIGDNLNWLQQEPDGTIKRLIYATFSLDSGVPKRFSGSRSGSVYSLTISRLESEDFVDYFCLHYASFPYTFGGGTKLEIK
notes: Mouse monoclonal antibody from hybridoma subclone
- % Positive (cynomolgus monkey GPRC5D [1]): 55.7%
- MFI (cynomolgus monkey GPRC5D [1]): 278
- % Positive (human GPRC5D [2]): 94.1%
- MFI (human GPRC5D [2]): 4930
- % Positive (human GPRC5D [3]): 98.3%
- MFI (human GPRC5D [3]): 824

B2: 119E4B4 (antibody, V domains shown)
VH: EVQLQQSGAELVKPGASVKLSCTASGFNIKDTYMHWVKQRPEQGLEWIGRIDPANGNTKYDPKFQGKATITADTSSNTAYLQLSSLTSEDTAVYYCARDYGNYEDYAMDYWGQGTSVTVSS
VL: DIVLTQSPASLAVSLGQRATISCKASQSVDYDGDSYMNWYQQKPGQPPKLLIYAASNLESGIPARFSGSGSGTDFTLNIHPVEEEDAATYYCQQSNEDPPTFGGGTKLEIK
notes: as for B1
- % Positive (cynomolgus monkey GPRC5D [1]): 69.6%
- MFI (cynomolgus monkey GPRC5D [1]): 709
- % Positive (human GPRC5D [2]): 88.2%
- MFI (human GPRC5D [2]): 3240
- % Positive (human GPRC5D [3]): 98.6%
- MFI (human GPRC5D [3]): 867

B3: 116G1G4 (antibody, V domains shown)
VH: EVQLQQSGPELVKPGASVKMSCKASGYTFTYYIMHWVKQEPGQGLQWIGYINPYNDGAYYSARFKGKATLTSDKSSSTAYMDLTSLTSEDSAVYYCARGGVRRYFDVWGAGTTVTVSS
VL: DIQMTQSPSSLSASLGERVILTCRASQDIGSNLIWLQQKPDGTIKRLIYATFNLDSGVSKRFSGSRSGSDYSLTISSLDSEDFVDYYCLQYASSPYTFGGGTKLEIK
notes: as for B1
- % Positive (cynomolgus monkey GPRC5D [1]): 59.8%
- MFI (cynomolgus monkey GPRC5D [1]): 344
- % Positive (human GPRC5D [2]): 94.4%
- MFI (human GPRC5D [2]): 6050
- % Positive (human GPRC5D [3]): 97.4%
- MFI (human GPRC5D [3]): 706

B4: 116F1G6 (antibody, V domains shown)
VH: EVQLQHSGPELVKPGASVKMSCKASGYTFTTYVMHWVKQKPGQGLEWIGYINPYNDGTKYNEKFKGKATLTSDKSSSTAYMELSSLTSEDSAVYYCARGGVRRYFDVWGAGTTVTVSS
VL: DIQMTQSPSSLSASLGERVSLTCRASQDIGSNLNWLQQEPNGTIKRLIYATFTLDSGVPKRFSGSRSGSDYSLTISSLESEDFVDYYCLQYASFPYTFGGGTKLEIK
notes: as for B1
- % Positive (cynomolgus monkey GPRC5D [1]): 41.4%
- MFI (cynomolgus monkey GPRC5D [1]): 82.6
- % Positive (human GPRC5D [2]): 96.2%
- MFI (human GPRC5D [2]): 42800
- % Positive (human GPRC5D [3]): 98.4%
- MFI (human GPRC5D [3]): 1040

B5: ch12G12C2 (antibody, V domains shown)
VH: QIQLVQSGPELKMPGETVKISCKASGYTFTTYGLSWVKQAPGKGLKWMGWINTFSGVPIYADDFKGRFAFSLETSASTAYLQINNLKNEDTATYFCARWGIRQRGDYWGQGATLTVSS
VL: QIVLTQSPAIMSASPGEKVTMTCSASSSVSYLHWYQQKSGTSPKRWIYDTSKLASGVPVRFSGSGSETSYSLTISSMEAEDAATYYCQQWTSNPPTFGGGTKLEIK
- EC50 (human GPRC5D [4]): 4.06 nM
- Top (human GPRC5D [4]): 3120
- EC50 (mouse GPRC5D): 995 nM
- Top (mouse GPRC5D): 1.48e+06
- EC50 (cynomolgus monkey GPRC5D [5]): 5.94 nM
- Top (cynomolgus monkey GPRC5D [5]): 28200

B6: ch20C4E1 (antibody, V domains shown)
VH: EVRLVESGGALVRPGGSLKLSCAASGFTFSDYGMHWVRQAPEKGLEWIAFISSVSFTIYYADTVKGRFTISRDNAKNTLFLQMTSLRSEDTALYYCTRLGPHWYFDVWGTGTTVTVSS
VL: DVVLTQTPLSLPVSLGDQASISCRSSQSLVYSNGNTYLHWFLQKPGQSPQLLIYKVSNRFSGVPDRFSGSGSGTDFTLKISRVEAEDLGVYFCSQSTPVPTFGGGTKLEIK
- EC50 (human GPRC5D [4]): 2.83 nM
- Top (human GPRC5D [4]): 4110
- EC50 (mouse GPRC5D): 3940 nM
- Top (mouse GPRC5D): 5.06e+06
- EC50 (cynomolgus monkey GPRC5D [5]): 11.5 nM
- Top (cynomolgus monkey GPRC5D [5]): 45800

B7: ch15D6G2 (antibody, V domains shown)
VH: EVQLVESGGDLVKPGGYLRLSCAASGFTFSSHGMSWVRQTPDKRLEWVATISSGGRNTYYPDSVKGRFTISRDNAKNILYLQMSSLKSEDTAMFYCTRHSGDAMDYWGQGTSVTVSS
VL: DILLTQSPAILSVSPGERVSFSCRASQSIGTNIHWYQQRTNGSPRLLIKYASESISGIPSRFSGSGSGTDFTLSINSVESEDIADYYCQQSKSWPTFGGGTKLEIK
- EC50 (human GPRC5D [4]): 1.27 nM
- Top (human GPRC5D [4]): 4080
- EC50 (mouse GPRC5D): 592 nM
- Top (mouse GPRC5D): 648000
- EC50 (cynomolgus monkey GPRC5D [5]): 19.3 nM
- Top (cynomolgus monkey GPRC5D [5]): 123000

B8: ch28H9C12 (antibody, V domains shown)
VH: EVQLVESGGGLVKPGGSLKLSCAASGFTFSDYGMHWVRQAPEKGLEWVAYISSGSSTIYYADTVKGRFTISRDNAKNTLFLQMTSLRSEDTAIYYCVRRPWYFDVWGTGTTVTVSS
VL: DVLMTQTPLSLPVSLGDQASISCRSSQSIVHSNGNTYLQWYLQKPGQSPKLLIYKVSNRFSGVPDRFSGSGSGTDFTLKISRLEAEDLGVYYCFQGSHVPFTFGSGTKLEIK
- EC50 (human GPRC5D [4]): 2.83 nM
- Top (human GPRC5D [4]): 3960
- EC50 (mouse GPRC5D): 110 nM
- Top (mouse GPRC5D): 26500
- EC50 (cynomolgus monkey GPRC5D [5]): 14.8 nM
- Top (cynomolgus monkey GPRC5D [5]): 65900

B9: ch36A3G8 (antibody, V domains shown)
VH: QVQLQQSGAELARPGASVKMSCKASGYTFTTYTMHWIKQRPGQDLEWIGFINPSSGYTKYNQNFKDKATLTADKSSTTAYMQLNSLTSEDSAVYYCASPYGNIYFDVWGTGTTVTVSS
VL: DIVMTQSQKFMSTAVGDRVSITCKASQNVGTAVAWYQQKPGQSPKLLIYSASNRYTGVPDRFTGSGSGTDFTLTISNMQSEDLADYFCQQYSSYPLTFGAGTKLELK
- EC50 (human GPRC5D [4]): 2.64 nM
- Top (human GPRC5D [4]): 2780

B10: ch83A9B8 (antibody, V domains shown)
VH: EVQLQQSGPELVKPGASVKMSCKASGYTFSNYVIHWVKQKPGQGLEWIGYFNPYNDGSKYNEKFKGKATLTSDKSSSTAYMELSSLTSEDSAVYYCARGGVRRYFDVWGAGTTVTVSS
VL: DIQMTQSPSSLSASLGERVSLTCRASQDIGDNLNWLQQEPDGTIKRLIYATFSLDSGVPKRFSGSRSGSVYSLTISRLESEDFVDYFCLHYASFPYTFGGGTKLEIK
- EC50 (human GPRC5D [4]): 0.4 nM
- Top (human GPRC5D [4]): 1840

B11: ch82A1C10 (antibody, V domains shown)
VH: QVQLKESGPGLVAPSQSLSITCTVSGFSLTNYAVTWVRQPPGKGLEWLGVIWGDGSTYYHSALVSRLSITKDNSRTQVLLKLNSLQTDDTARYYCAKGGYSPFAYWGQGTLVTVSA
VL: DVVMTQTPLSLPVSLGDQASISCRSSQSLVHSNGNTYLHWYLQKPGQSPKLLIFKVSNRFSGVPDRFSGSGSGTDFTLKISRVEAEDLGVYFCSQNTHVPFTFGSGTKLEIK
- EC50 (human GPRC5D [4]): 2.76 nM
- Top (human GPRC5D [4]): 2680

B12: ch116G1G4 (antibody, V domains shown)
VH: EVQLQQSGPELVKPGASVKMSCKASGYTFTYYIMHWVKQEPGQGLQWIGYINPYNDGAYYSARFKGKATLTSDKSSSTAYMDLTSLTSEDSAVYYCARGGVRRYFDVWGAGTTVTVSS
VL: DIQMTQSPSSLSASLGERVILTCRASQDIGSNLIWLQQKPDGTIKRLIYATFNLDSGVSKRFSGSRSGSDYSLTISSLDSEDFVDYYCLQYASSPYTFGGGTKLEIK
- EC50 (human GPRC5D [4]): 0.686 nM
- Top (human GPRC5D [4]): 2240

B13: ch116F1G6 (antibody, V domains shown)
VH: EVQLQHSGPELVKPGASVKMSCKASGYTFTTYVMHWVKQKPGQGLEWIGYINPYNDGTKYNEKFKGKATLTSDKSSSTAYMELSSLTSEDSAVYYCARGGVRRYFDVWGAGTTVTVSS
VL: DIQMTQSPSSLSASLGERVSLTCRASQDIGSNLNWLQQEPNGTIKRLIYATFTLDSGVPKRFSGSRSGSDYSLTISSLESEDFVDYYCLQYASFPYTFGGGTKLEIK
- EC50 (human GPRC5D [4]): 0.863 nM
- Top (human GPRC5D [4]): 1170
